Assay results taken from US20260139263A1 (IOWA STATE UNIVERSITY RESEARCH FOUNDATION, published 2026).
No end group written: not given here. nYFP = N-terminal end of yellow fluorescent protein

B1: GST-QQS fusion protein (other)
chain: MKTNREQEIYVERSFKPNNSTIQNLMDIERFILPHTSTSGVARLKMRVISWVGLQFYNY
modifications: also: fused to GST tag, position and linker not given here
notes: also called GST-tagged QQS; not shown: glutathione-S-transferase (GST) tag
B2: QQS-nYFP (other)
chain: MKTNREQEIYVERSFKPNNSTIQNLMDIERFILPHTSTSGVARLKMRVISWVGLQFYNY-nYFP
modifications: also: nYFP limits and sequence not given here
notes: BiFC construct expressed in tobacco leaves; QQS is fused in-frame to the N-terminus of nYFP; not shown: nYFP (N-terminal end of yellow fluorescent protein)

Tests used:
[1] = target: T1, Arabidopsis Nuclear Factor YB7 (AtNF-YB7), recombinant, tagged, for pull-down (Arabidopsis, UniProt Q9SIT9 1-215); assay: GST pull-down
T1 construct: Contains a histone-fold-like domain; also called AtNF-YB7-GST fusion protein
T1 sequence (looked up): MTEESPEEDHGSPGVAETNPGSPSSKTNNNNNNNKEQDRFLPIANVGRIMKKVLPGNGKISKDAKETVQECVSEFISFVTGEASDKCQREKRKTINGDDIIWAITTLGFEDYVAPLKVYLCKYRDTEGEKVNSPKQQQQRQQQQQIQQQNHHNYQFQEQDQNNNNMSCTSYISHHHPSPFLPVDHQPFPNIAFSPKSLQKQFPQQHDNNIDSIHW

AtNF-YC4-cYFP = target: T2, AtNF-YC4-cYFP (Arabidopsis thaliana, UniProt Q9FMV5 1-250); assay: in vivo co-expression in tobacco leaf
T2 construct: BiFC construct expressed in tobacco leaves; AtNF-YC4 is fused in-frame to the N-terminus of cYFP; not shown: cYFP (C-terminal end of yellow fluorescent protein)
T2 sequence (looked up): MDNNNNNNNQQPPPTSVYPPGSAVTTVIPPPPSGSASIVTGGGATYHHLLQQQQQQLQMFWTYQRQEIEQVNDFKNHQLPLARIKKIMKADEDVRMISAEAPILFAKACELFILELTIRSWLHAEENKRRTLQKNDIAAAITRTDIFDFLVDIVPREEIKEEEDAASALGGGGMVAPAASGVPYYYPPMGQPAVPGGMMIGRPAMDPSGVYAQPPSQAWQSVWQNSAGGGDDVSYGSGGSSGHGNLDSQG
Description: QQS and AtNF-YC4 were fused in-frame to the N-terminus of nYFP (N-terminal end of yellow fluorescent protein (YFP)) and cYFP (C-terminal end of YFP), respectively. Agrobacterium strain GV3101 transformed with QQS-nYFP and AtNF-YC4-cYFP constructs were co-infiltrated into Nicotiana tabacum. The reconstituted YFP signal was observed 48 h after infiltration under a Zeiss Axioplan II fluorescence microscope.

| Binder | binding result [1] | binding result (AtNF-YC4-cYFP) |
| --- | --- | --- |
| B1 | no binding | – |
| B2 | – | binds |
